Experimental data reported in article PMC3961655, “Methyllysine Reader Plant Homeodomain (PHD) Finger Protein 20-like 1 (PHF20L1) Antagonizes DNA (Cytosine-5) Methyltransferase 1 (DNMT1) Proteasomal Degradation*” (The Journal of Biological Chemistry, 2014).

Target: endogenous DNMT1 (human (endogenous in HeLa, HEK293, …, UniProt P26358 1-1616))
Test: cell-based or functional assay

Chain of endogenous DNMT1 (human (P26358 whole entry): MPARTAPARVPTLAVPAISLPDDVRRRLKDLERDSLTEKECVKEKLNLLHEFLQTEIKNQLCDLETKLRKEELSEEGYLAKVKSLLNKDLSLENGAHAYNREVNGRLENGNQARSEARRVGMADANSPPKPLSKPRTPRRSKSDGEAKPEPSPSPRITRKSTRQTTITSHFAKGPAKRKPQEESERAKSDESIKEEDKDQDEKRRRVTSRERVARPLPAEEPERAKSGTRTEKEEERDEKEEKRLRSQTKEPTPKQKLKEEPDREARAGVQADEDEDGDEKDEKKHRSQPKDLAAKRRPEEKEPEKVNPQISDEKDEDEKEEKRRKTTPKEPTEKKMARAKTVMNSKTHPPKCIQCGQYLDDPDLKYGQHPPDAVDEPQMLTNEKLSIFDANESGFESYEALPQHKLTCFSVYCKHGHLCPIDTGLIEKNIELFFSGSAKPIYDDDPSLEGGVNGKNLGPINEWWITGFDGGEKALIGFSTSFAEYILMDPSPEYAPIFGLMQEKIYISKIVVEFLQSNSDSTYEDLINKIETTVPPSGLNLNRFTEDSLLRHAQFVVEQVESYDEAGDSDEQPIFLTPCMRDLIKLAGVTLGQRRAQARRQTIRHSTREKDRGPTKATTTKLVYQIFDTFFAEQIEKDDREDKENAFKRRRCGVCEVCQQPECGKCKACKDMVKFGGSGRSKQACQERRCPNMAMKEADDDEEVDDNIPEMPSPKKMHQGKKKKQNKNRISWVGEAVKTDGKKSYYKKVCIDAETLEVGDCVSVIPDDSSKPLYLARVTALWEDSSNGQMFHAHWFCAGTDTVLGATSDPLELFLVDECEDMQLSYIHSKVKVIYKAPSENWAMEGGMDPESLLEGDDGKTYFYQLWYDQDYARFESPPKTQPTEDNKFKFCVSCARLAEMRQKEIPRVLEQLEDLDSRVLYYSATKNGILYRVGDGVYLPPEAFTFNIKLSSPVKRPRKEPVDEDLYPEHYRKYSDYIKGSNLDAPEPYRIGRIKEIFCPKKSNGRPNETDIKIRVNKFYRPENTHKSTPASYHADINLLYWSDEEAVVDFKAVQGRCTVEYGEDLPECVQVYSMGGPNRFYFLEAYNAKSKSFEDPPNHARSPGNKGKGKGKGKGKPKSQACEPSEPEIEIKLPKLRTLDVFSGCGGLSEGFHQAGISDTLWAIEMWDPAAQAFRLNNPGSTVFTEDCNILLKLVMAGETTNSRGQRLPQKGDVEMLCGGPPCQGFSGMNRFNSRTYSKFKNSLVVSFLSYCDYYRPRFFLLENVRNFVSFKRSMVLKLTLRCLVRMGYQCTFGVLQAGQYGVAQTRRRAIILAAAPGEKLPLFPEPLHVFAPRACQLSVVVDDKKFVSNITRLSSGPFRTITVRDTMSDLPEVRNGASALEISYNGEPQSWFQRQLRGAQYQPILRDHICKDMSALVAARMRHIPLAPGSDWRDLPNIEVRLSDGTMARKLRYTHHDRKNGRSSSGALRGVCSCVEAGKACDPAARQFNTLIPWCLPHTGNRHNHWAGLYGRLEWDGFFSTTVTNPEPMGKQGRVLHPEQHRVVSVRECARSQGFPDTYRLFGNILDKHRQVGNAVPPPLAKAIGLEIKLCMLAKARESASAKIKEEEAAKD

half-life of DNMT1 in HeLa cells with cycloheximide, 60 uM UNC1215 (MBT domain inhibitor) against ethanol: ~50%
B1: endogenous PHF20L1a (natural protein, UniProt A8MW92 1-1017, looked up)
chain: MSKKPPNRPGITFEIGARLEALDYLQKWYPSRIEKIDYEEGKMLVHFERWSHRYDEWIYWDSNRLRPLERPALRKEGLKDEEDFFDFKAGEEVLARWTDCRYYPAKIEAINKEGTFTVQFYDGVIRCLKRMHIKAMPEDAKGQVKSQHPLSWCCPIDPAGSCNQSMGSEDWIALVKAAAAAAAKNKTGSKPRTSANSNKDKDKDERKWFKVPSKKEETSTCIATPDVEKKEDLPTSSETFGLHVENVPKMVFPQPESTLSNKRKNNQGNSFQAKRARLNKITGLLASKAVGVDGAEKKEDYNETAPMLEQAISPKPQSQKKNEADISSSANTQKPALLSSTLSSGKARSKKCKHESGDSSGCIKPPKSPLSPELIQVEDLTLVSQLSSSVINKTSPPQPVNPPRPFKHSERRRRSQRLATLPMPDDSVEKVSSPSPATDGKVFSISSQNQQESSVPEVPDVAHLPLEKLGPCLPLDLSRGSEVTAPVASDSSYRNECPRAEKEDTQMLPNPSSKAIADGRGAPAAAGISKTEKKVKLEDKSSTAFGKRKEKDKERREKRDKDHYRPKQKKKKKKKKKSKQHDYSDYEDSSLEFLERCSSPLTRSSGSSLASRSMFTEKTTTYQYPRAILSVDLSGENLSDVDFLDDSSTESLLLSGDEYNQDFDSTNFEESQDEDDALNEIVRCICEMDEENGFMIQCEECLCWQHSVCMGLLEESIPEQYICYICRDPPGQRWSAKYRYDKEWLNNGRMCGLSFFKENYSHLNAKKIVSTHHLLADVYGVTEVLHGLQLKIGILKNKHHPDLHLWACSGKRKDQDQIIAGVEKKIAQDTVNREEKKYVQNHKEPPRLPLKMEGTYITSEHSYQKPQSFGQDCKSLADPGSSDDDDVSSLEEEQEFHMRSKNSLQYSAKEHGMPEKNPAEGNTVFVYNDKKGTEDPGDSHLQWQLNLLTHIENVQNEVTSRMDLIEKEVDVLESWLDFTGELEPPDPLARLPQLKRHIKQLLIDMGKVQQIATLCSV
